The target in this experiment is hybrid GFP construct containing the protease cleavage sequence SVPSGCG (SEQ ID NO:21) followed by histidine residues (Aequorea victoria (Water jellyfish) (Mesonema victoria)) [GFP: P42212]. In words: cell-based or functional assay.

Pancreatin: the Micrograms of GFP Released by Protease (overnight, IMAC beads) was 137 µg.

The record behind these values is patent US20080241867A1.
